Results from patent US20200239586A1 (LA TROBE UNIVERSITY, published 2020).

Key:
[1] = target: phage expressed hFn14 mutant S61A (human, UniProt Q9NP84 28-77); assay: phage ELISA (Method 2), antibody on plate, phage dilution 1/X on the x axis
From the text: (§1) For mutants P59A and F63A, binding was detected using HRP-conjugated anti-M13-phage polyclonal IgG and TMB substrate. For all other mutants binding was detected using Biotin-conjugated anti-M13-phage monoclonal antibody followed by HRP-conjugated Streptavidin and TMB substrate. Optical density at 450 nm was quantified using a Spectramax spectrophotometer. Error bars for each dilution represent the standard deviation of duplicate assays. FIG. 27A wild type Fn14, FIG. 27B W42A, FIG. 27C S54A, FIG. 27D A57G, FIG. 27E P59A, FIG. 27F S61A, FIG. 27G F63A, FIG. 27H L65A. In all cases error bars represent the standard deviation. X axis=dilution of phage. Methods according to Epitope mapping using phage expressed Fn14—Method 2
(§2) The wells of Maxisorp immunoplates (Nunc) were coated overnight at 4° C. with the target monoclonal antibodies or recombinant Tweak-Fc at a concentration of 1.5 μg/ml in PBS. mAb 5G8 was used as a negative control for ELISA plates coated with tested antibodies. […] 10-fold serial dilutions of phage were made using PBS solution and phage dilutions were added to the coated, blocked ELISA plates for 1 hour, shaking at room temperature. Phage was subsequently removed from the wells and the ELISA plates were washed three times with PBS/0.05% Tween 20.
(§3) Method A: HRP-conjugated anti-M13-phage antibody (GE Healthcare) at a 1/5000 dilution in PBS was then added to the wells of the ELISA plates for 1 hour, shaking at room temperature. The antibody solution was then removed from the wells and the ELISA plates were washed four times with PBS/0.05% Tween 20. Method B: Biotin-conjugated anti-M13-phage antibody (GE Healthcare) diluted in PBS was then added to the wells of the ELISA plates for 1 hour shaking at room temperature. The antibody solution was then removed from the wells and the ELISA plates were washed three times with PBS/0.05% Tween 20. HRP-conjugated Streptavidin diluted in PBS was then added to the wells of the ELISA plates for 1 hour, shaking at room temperature. The solution was then removed from the wells and the ELISA plates were washed three times with PBS/0.05% Tween 20. ELISAs were developed using TMB substrate and the reaction was stopped using 2 M H2504 solution.

[2] = target: phage expressed hFn14 mutant L65A (human, UniProt Q9NP84 28-77); assay: phage ELISA (Method 2): antibody coated on the plate, 10-fold dilutions of phage displaying hFn14 L65A; biotin anti-M13 antibody, streptavidin-HRP, TMB, OD 450 nm; x axis = dilution of phage
From the text: as §1
as §2, with “20. […]” for “20.”

[3] = target: phage expressed hFn14 mutant D62A (human, UniProt Q9NP84 28-77); assay: phage ELISA (Method 2): antibody coated on the plate, 10-fold dilutions of phage displaying hFn14 D62A; biotin anti-M13 antibody, streptavidin-HRP, TMB, OD 450 nm; x axis = dilution of phage
From the text: ELISAs showing the reactivity of mutant hFn14 phage constructs with the anti-Fn14 monoclonal antibodies CRCBT-06-001, CRCBT-06-002, CRCBT-06-004 compared to ITEM-1 and ITEM-4. Binding was detected using Biotin-conjugated anti-M13-phage monoclonal antibody followed by HRP-conjugated Streptavidin and TMB substrate. Optical density at 450 nm was quantified using a Spectramax spectrophotometer. Error bars for each dilution represent the standard deviation of duplicate assays. FIG. 28A L46A, FIG. 28B D51A and FIG. 28C D62A. In all cases error bars represent the standard deviation. X axis=dilution of phage. Methods according to Epitope mapping using phage expressed Fn14—Method 2.
as §2, with “Phage was subsequently removed from the wells and the ELISA plates were washed three times with PBS/0.05% Tween 20.” left out
Method A: HRP-conjugated anti-M13-phage antibody (GE Healthcare) at a 1/5000 dilution in PBS was then added to the wells of the ELISA plates for 1 hour, shaking at room temperature. […] Optical density at 450 nm was quantified using a Spectramax absorbance spectrophotometer.

[4] = target: T1, His tagged hFn14 extracellular region mutant R56P (human, UniProt Q9NP84 28-77); assay: ELISA with purified His-tagged hFn14 R56P; x axis 'Log (c)' without unit, µg/ml by the legend
T1 construct: also called R56P mutant; not shown: (His)6 tag

[5] = target: T2, synthetic peptide hFn14 sub-domain 2 (human, biotin on the added C-terminal lysine; disulfide bonds as in the solution structure of He et al. 2009); assay: ELISA, synthetic biotin peptide on neutravidin plate; antibody concentration not given
T2 construct: also called sub-domain 2 peptide
T2 peptide: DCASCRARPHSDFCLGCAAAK
From the text: FIG. 21B is a graphical representation showing reactivity of anti-Fn14 mAbs CRCBT-06-001, CRCBT-06-002, CRCBT-06-003, CRCBT-06-004, CRCBT-06-005, CRCBT-06-006, CRCBT-06-007 and ITEM-1 with a synthetic peptide representing sub-domain 2 of Fn14. Plates were coated with sub-domain 2 peptide and various dilutions of antibody were allowed to bind, bound antibody was detected with anti-mouse HRP and TMB substrate. The average of duplicate readings are plotted, error bars represent standard deviations. The ELISA was repeated to ensure consistent results. The vertical line at 5 ng/ml within the linear part of the curves is the point at which a comparison of the reactivity of each mAb was analyzed.
The ELISA was performed essentially according to the manufacturer's recommended protocol (Pierce). Briefly, peptide was coated onto wells (in duplicate) at 1-10 μg/ml for 2 hours at room temperature. Wells were washed in PBS/0.05% Tween 20/0.1% BSA 3 times and dilutions of each antibody were added in wash buffer for 1 hour with gentle agitation. After another three washes anti-mouse HRP-conjugated to horse radish peroxidase (HRP; Chemicon) was added at 1/1000 dilution for 1 hour shaking. […] Optical density at 450 nm was quantified using a Spectromax absorbance spectrophotometer.

[6] = target: phage expressed hFn14 mutant S54A (human, UniProt Q9NP84 28-77); assay: phage ELISA, mAb coated (Method 2)
phage expressed hFn14 mutant S54A, sequence (Q9NP84 28-77 S54A): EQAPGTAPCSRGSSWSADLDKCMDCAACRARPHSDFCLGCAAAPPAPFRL
Experimental: as §2
as §3, with “[…] Optical density at 450 nm” for “The solution”, “quantified” for “then removed from the wells and the ELISA plates were washed three times with PBS/0.05% Tween 20. ELISAs were developed”, “a Spectramax absorbance spectrophotometer.” for “TMB substrate and the reaction was stopped using 2 M H2504 solution.”

Measured: binding result

phage expressed hFn14 mutant S61A, sequence (Q9NP84 28-77 S61A): as the sequence (Q9NP84 28-77 S54A) above, with A27S, S34A counted along it

B1: CRCBT-06-001 (antibody, IgG2b, V domains shown)
VH: QVQLQQSGGGLVQPGGSMKLSCIASGFTFSSYWMSWVRQSPEKGLEWVAEIRSKSDNYATHYAESVKGKFTISRDDSKSRFFLQMNNLRAEDTGIYYCSSTYADYFHYWGQGTDLTVSS
VL: DIVMTQTPASLAVSLGQRATISCRASQSVSTSTYSYMHWYQQKPGQPPKLLIKYASSLESGVPARFSGSGSGTDFTLNIHPVEEDDTATYYCQHSWEIPYTFGGGTKLEIKR
binds: [1] | [2] | [3] | [4] | [5] | [6]

B2: CRCBT-06-002 (antibody, IgG1, V domains shown)
VH: EVKLQQSGGGLVQPGGSMKLSCVASGFTFSYYWMNWVRQSPEQGLEWIAEIRLQSNDYPTHYAESVKGRFTISRDDSKNSVYLQMNNLRPEDTGIYYCACRYADYFDHWGQGTTLTVSS
VL: DTVLTQSPASLVVSLGQRATISCRASQSVSTSDYSYIHWYQQKPGQPPKFLIKYASNRDSGVPARFSGSGSGTDFTLNIHPVEEDDTAIYYCQHSWEIPPTFGAGTKLELQR
binds: [1] | [2] | [3] | [4] | [5] | [6]
